In patent US11491212:

B1: FIXa Y155F/K247N/N249S/R403E/E410N (protein)
chain 1: not shown
chain 2: not shown
B2: FIXa Y155F/T343R/R403E/E410N (protein)
chain 1: not shown
chain 2: not shown
B3: FIXa K228N/K247N/N249S/R318Y/R338E/T343R/R403E (protein)
chain 1: not shown
chain 2: not shown
B4: FIXa K228N/K247N/N249S/R318Y/R338E/T343R/E410N (protein)
chain 1: not shown
chain 2: not shown
B5: FIXa K228N/R318Y/R338E/T343R/R403E/E410N (protein)
chain 1: not shown
chain 2: not shown
B6: FIXa Y155F/R318Y/T343R/E410N (protein)
chain 1: not shown
chain 2: not shown
B7: FIXa K247N/N249S/R318Y/R338E/T343R (protein)
chain 1: not shown
chain 2: not shown
B8: FIXa Y155F/R318Y/T343R/R403E (protein)
chain 1: not shown
chain 2: not shown
B9: FIXa Y155F/R338E/T343R/E410N (protein)
chain 1: not shown
chain 2: not shown
B10: FIXa R318Y/T343R/E410N (protein)
chain 1: not shown
chain 2: not shown
B11: FIXa R318Y/R338E/T343R (protein)
chain 1: not shown
chain 2: not shown
B12: FIXa Y155F/K247N/N249S/R318Y/R338E/T343R (protein)
chain 1: not shown
chain 2: not shown
B13: FIXa Y155F/K247N/N249S/T343R/E410N (protein)
chain 1: not shown
chain 2: not shown

Target: Factor X, P00742
Sequence (P00742 whole entry, looked up): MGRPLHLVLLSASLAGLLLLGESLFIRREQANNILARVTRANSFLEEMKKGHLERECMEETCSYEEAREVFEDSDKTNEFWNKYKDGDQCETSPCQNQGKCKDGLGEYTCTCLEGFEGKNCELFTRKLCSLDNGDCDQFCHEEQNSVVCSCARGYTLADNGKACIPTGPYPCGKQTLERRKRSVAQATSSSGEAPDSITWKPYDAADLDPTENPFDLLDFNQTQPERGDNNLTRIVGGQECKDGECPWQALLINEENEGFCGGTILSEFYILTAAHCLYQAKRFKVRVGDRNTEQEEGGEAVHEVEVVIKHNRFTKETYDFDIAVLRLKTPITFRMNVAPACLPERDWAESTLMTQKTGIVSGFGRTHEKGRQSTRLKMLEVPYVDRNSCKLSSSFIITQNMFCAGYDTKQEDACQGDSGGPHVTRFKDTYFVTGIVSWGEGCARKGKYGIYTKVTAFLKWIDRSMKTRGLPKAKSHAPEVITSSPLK

Which results are given for B1?
% of WT kcat/KM: 53%; kcat/KM: 2.4e+07 M⁻¹ s⁻¹

With B2 as the protein, how does the “% of WT kcat/KM” value read?
The value was 321%.

What about the kcat/KM of the same protein?
The kcat/KM was 1.5e+08 M⁻¹ s⁻¹.

Which “% of WT kcat/KM” value does the source give for B3 here?
Its value is 636%.

And the kcat/KM?
Its kcat/KM is 2.9e+08 M⁻¹ s⁻¹.

B4 was tested. Which “% of WT kcat/KM” value did it give?
The value was 278%.

What about the kcat/KM of the same protein?
The kcat/KM was 1.3e+08 M⁻¹ s⁻¹.

Which results are given for B5?
% of WT kcat/KM: 593%; kcat/KM: 2.7e+08 M⁻¹ s⁻¹

Which “% of WT kcat/KM” value does the source give for B6 here?
Its value is 326%.

What about the kcat/KM of the same protein?
The kcat/KM was 1.5e+08 M⁻¹ s⁻¹.

B7 was tested. Which “% of WT kcat/KM” value did it give?
The value was 840%.

What about the kcat/KM of the same protein?
The kcat/KM was 3.9e+08 M⁻¹ s⁻¹.

How did the “% of WT kcat/KM” value turn out when B8 was run?
The value was 154%.

And the kcat/KM?
Its kcat/KM is 7.1e+07 M⁻¹ s⁻¹.

Which “% of WT kcat/KM” value does the source give for B9 here?
Its value is 761%.

What about the kcat/KM of the same protein?
Its kcat/KM is 3.5e+08 M⁻¹ s⁻¹.

What does the source list for B10?
% of WT kcat/KM: 135%; kcat/KM: 6.2e+07 M⁻¹ s⁻¹

B11 was tested. Which “% of WT kcat/KM” value did it give?
The value was 324%.

And the kcat/KM?
Its kcat/KM is 1.5e+08 M⁻¹ s⁻¹.

Which “% of WT kcat/KM” value does the source give for B12 here?
The value was 772%.

And the kcat/KM?
The kcat/KM was 3.6e+08 M⁻¹ s⁻¹.

Which results are given for B13?
% of WT kcat/KM: 599%; kcat/KM: 2.8e+08 M⁻¹ s⁻¹

Target: Factor X (FX), P00742
Sequence (P00742 whole entry, looked up): as above

How did the kcat (s^-1), activation of FX by FIXa in the Xase complex turn out when B1 was run?
Its kcat (s^-1), activation of FX by FIXa in the Xase complex is 2.7 s⁻¹.

How did the kcat (s^-1), activation of FX by FIXa in the Xase complex turn out when B2 was run?
Its kcat (s^-1), activation of FX by FIXa in the Xase complex is 6.6 s⁻¹.

B3 was tested. Which kcat (s^-1), activation of FX by FIXa in the Xase complex did it give?
The kcat (s^-1), activation of FX by FIXa in the Xase complex was 10.9 s⁻¹.

B4 was tested. Which kcat (s^-1), activation of FX by FIXa in the Xase complex did it give?
The kcat (s^-1), activation of FX by FIXa in the Xase complex was 4.7 s⁻¹.

Which kcat (s^-1), activation of FX by FIXa in the Xase complex does the source give for B5 here?
Its kcat (s^-1), activation of FX by FIXa in the Xase complex is 10.5 s⁻¹.

Which kcat (s^-1), activation of FX by FIXa in the Xase complex does the source give for B6 here?
Its kcat (s^-1), activation of FX by FIXa in the Xase complex is 5 s⁻¹.

Which kcat (s^-1), activation of FX by FIXa in the Xase complex does the source give for B7 here?
Its kcat (s^-1), activation of FX by FIXa in the Xase complex is 8 s⁻¹.

With B8 as the protein, how does the kcat (s^-1), activation of FX by FIXa in the Xase complex read?
Its kcat (s^-1), activation of FX by FIXa in the Xase complex is 5 s⁻¹.

For B9, which kcat (s^-1), activation of FX by FIXa in the Xase complex is on record?
Its kcat (s^-1), activation of FX by FIXa in the Xase complex is 6 s⁻¹.

How did the kcat (s^-1), activation of FX by FIXa in the Xase complex turn out when B10 was run?
The kcat (s^-1), activation of FX by FIXa in the Xase complex was 3.2 s⁻¹.

Which kcat (s^-1), activation of FX by FIXa in the Xase complex does the source give for B11 here?
The kcat (s^-1), activation of FX by FIXa in the Xase complex was 4.5 s⁻¹.

B12 was tested. Which kcat (s^-1), activation of FX by FIXa in the Xase complex did it give?
The kcat (s^-1), activation of FX by FIXa in the Xase complex was 8.5 s⁻¹.

For B13, which kcat (s^-1), activation of FX by FIXa in the Xase complex is on record?
The kcat (s^-1), activation of FX by FIXa in the Xase complex was 7.9 s⁻¹.
